Results on three molecules are retold here after publication PMC10167072, “Human granzyme B binds Plasmodium falciparum Hsp70-x and mediates antiplasmodial activity in vitro” (Cell Stress & Chaperones, 2023).

Test [1] concerns the target PfHsp70-xT, truncated PfHsp70-x lacking the C-terminal EEVN residues (P. falciparum). Nature of the test: SPR; Hsp70 immobilised (100 µg/mL) on CMD 3D 500L chip, GrB analyte 0-2000 nM, 25 °C, PBS-Tween 20 with 20 mM EDTA pH 7.4, 25 μL/min, 1:1 Langmuir global fit; with ATP.
The target of test [2] is full-length PfHsp70-xF (P. falciparum). The description is as above.
The target in test [3] is PfHsp70-xT, truncated PfHsp70-x lacking the C-terminal EEVN residues (P. falciparum). The test can be described thus: SPR; Hsp70 immobilised (100 µg/mL) on CMD 3D 500L chip, GrB analyte 0-2000 nM, 25 °C, PBS-Tween 20 with 20 mM EDTA pH 7.4, 25 μL/min, 1:1 Langmuir global fit; no nucleotide. Background: SPR reads the build-up and loss of mass on a sensor chip optically.
The target of test [4] is full-length PfHsp70-xF (P. falciparum). The description is as above.
Test [5] has as its target PfHsp70-xT, truncated PfHsp70-x lacking the C-terminal EEVN residues (P. falciparum). The test can be described thus: SPR; Hsp70 immobilised (100 µg/mL) on CMD 3D 500L chip, GrB analyte 0-2000 nM, 25 °C, PBS-Tween 20 with 20 mM EDTA pH 7.4, 25 μL/min, 1:1 Langmuir global fit; with ADP.
The target of test [6] is full-length PfHsp70-xF (P. falciparum). The test is described as above.
A further test addresses T1, human granzyme B (human, UniProt P10144 19-247).
T1 construct: granzyme B, human, serine protease; Bought protein; also called GrB; human GrB; source: bought: Hölzel Diagnostics, Cologne, Germany
Nature of the test: SPR; GrB immobilised on the chip, TKD peptides injected as analytes at 0, 125, 500, 750 and 1000 nM, 25 °C, 1:1 Langmuir global fit; no nucleotide. As to conditions: both partners purified.

“human granzyme B (from UniProt P10144 19-247) (enzyme)”: the Kd in test [1] was 4200 nM; in test [2] it was 1 nM; in test [3], 2370 nM; in test [4] it was 4 nM; in test [5] it was 2820 nM; in test [6], 1 nM. Also, the koff was found to be 0.000123 s⁻¹ in test [1]; 2.05e-05 s⁻¹ in test [2]; 0.000732 s⁻¹ in test [3]; 1.64e-05 s⁻¹ in test [4]; 2.24e-05 s⁻¹ in test [5]; 7.06e-06 s⁻¹ in test [6]. The kon in test [1] is 5870 M⁻¹ s⁻¹; in test [2], 6990 M⁻¹ s⁻¹; in test [3], 2140 M⁻¹ s⁻¹; in test [4], 4350 M⁻¹ s⁻¹; in test [5], 2560 M⁻¹ s⁻¹; in test [6], 3850 M⁻¹ s⁻¹.

B1: synthetic TKD peptide representing the 14-mer TKD motif of PfHsp70-x (peptide)
peptide: TKDNNLLGKFQLEG
notes: 14-mer TKD motif of PfHsp70-x, Plasmodium falciparum; also called PfHsp70-x TKD; source: synthetic peptide (Genscript, Piscataway, NJ, USA)
B1: in the test with human granzyme B, binding was put at a Kd of 20 nM, the koff stood at 3.62e-05 s⁻¹ and the kon turned out to be 3130 M⁻¹ s⁻¹.

B2: TKD motif of hHsp70 (14-mer peptide) (peptide)
peptide: TKDNNLLGRFELSG
notes: 14-mer TKD motif of human Hsp70, amino acids 450-463; also called hHsp70 TKD motif
In the case of B2, in the test with human granzyme B, the affinity, expressed as Kd, was 4 nM; the koff amounted to 2.17e-05 s⁻¹; the kon stood at 2930 M⁻¹ s⁻¹.

For orientation: Kd means the equilibrium constant for the complex coming apart. Higher therefore signals a looser complex. As usually defined, the koff is the rate constant with which the complex falls apart. A word on the kon: it is a measure of how fast the partners come together. A high value points to fast association.
